B1: VHH1_C001 (VHH)
VHH: EVQLVESGGGLVQPGGSLRLSCAASPRTFQTYFMGWFRQAPGKELEWVSVINWSGGTSYYKDSVKGRFTISRDNSKNTLYLQMNSLRAEDTAVYYCAAKGSGTYDREGEYDYWGQGTLVTVSS
B2: VHH1_C002 (VHH)
VHH: EVQLLESGGGLVQPGGSLRLSCAASGFTFSDYHMSWVRQAPGKGLEWVSGILNTGLSPTYAATVTGRFTISRDNSKNTLYLQMNSLRAEDTAVYYCAQGYYRATPSQANRGQGTLVTVSS

Target: native B7H3 on cells (UniProt Q5ZPR3)
Assay: flow cytometry on cells with native B7H3 (taken as H358), anti-His-tag iFluor 488 detection

Sequence of native B7H3 on cells (Q5ZPR3 29-534): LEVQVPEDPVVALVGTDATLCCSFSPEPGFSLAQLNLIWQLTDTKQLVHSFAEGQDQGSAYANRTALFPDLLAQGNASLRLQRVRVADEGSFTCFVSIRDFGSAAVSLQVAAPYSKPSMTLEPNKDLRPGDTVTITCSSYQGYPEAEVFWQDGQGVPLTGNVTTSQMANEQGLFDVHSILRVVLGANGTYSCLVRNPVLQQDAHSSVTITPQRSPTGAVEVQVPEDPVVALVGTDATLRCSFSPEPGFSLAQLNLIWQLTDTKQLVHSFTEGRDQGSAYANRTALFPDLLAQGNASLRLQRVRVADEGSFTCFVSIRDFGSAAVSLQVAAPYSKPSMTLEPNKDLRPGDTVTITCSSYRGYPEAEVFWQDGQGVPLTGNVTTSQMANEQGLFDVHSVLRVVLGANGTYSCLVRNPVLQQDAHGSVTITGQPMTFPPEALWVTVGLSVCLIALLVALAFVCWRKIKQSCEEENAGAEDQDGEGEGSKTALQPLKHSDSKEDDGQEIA

Binder	EC50 [µM]	MFI
B1	0.00629	496000
B2	0.077	539000

Source: US20260085122A1
